Measured values taken from the nanobody polyreactivity screen of Harvey et al. (2022).

Test: yeast display, Sf9 membrane polyspecificity reagent, FACS + sequencing; frameworks hold sequencing errors
Procedure, shortened: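 Synthetic nanobody libraries on Saccharomyces cerevisiae BJ5465 were galactose-induced for 36–48 hours, stained 1 hour at 4 °C with 10% biotinylated, detergent-solubilized Sf9 membrane reagent and enriched on streptavidin microbeads. FACS then separated cells into low and high (top ~1%) gates by anti-HA (expression) and streptavidin (reagent binding) fluorescence. Genes were colony-PCR amplified, MiSeq 2 × 250 sequenced and CDR-length filtered. A clone's polyreactivity label is that of its gate of origin.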
For “QVQLVESGGGLVQAGGSLRLSCAASGITFDLYDMGWYRQAPGKERDFVAAITDADSTYYADSVKGRFTISRDNAKNTVYLQMNSLKPEDTAVYYCAADFFYSVYSGHYDYWGQGTQVTVSS”, the “polyreactivity (PSR sort gate)” value was “low polyreactivity”. For “QVQLVESGGGLVQAGGSLRLSCAASGITFDNYAMGWYIQAPGKERELVAAITSGDGTYYADSVKWRFTISRDNAKITVYLQMNSLKPEDTAVYACAVQGSRTENYDWYYYGGQGTQVTVSS”, the “polyreactivity (PSR sort gate)” value was “low polyreactivity”. For “QVQLVESGGGLVQAGGSLRLSCAASGITFDRYAMGWYRQAPGKERELVAAITTRGTRTYADSVKGRFTISRDNAKNTVYLQMNSLKPEDTAVYYCAATSYRLTYAWPYYYWGQGTQVTVSS”, the “polyreactivity (PSR sort gate)” value was “high polyreactivity”. For “QVQLVESGGGLVQAGGSLRLSCAASGITFDTYAMGWYRQAPGKERELVAAISKSGGSTYYADSVKGRFTISRDNAKNTVYLQMNSLKPEDTAVYYCAKDAGSRTVREFGYWGQGTQVTVSS”, the “polyreactivity (PSR sort gate)” value was “high polyreactivity”. With “QVQLVESGGGLVQAGGSLRLSCAASGITFDVYAMGWYRQAPGKERELVAAISSVGGTYYADSVKGRFTISRDNAKNTVYFQMNSLKPEDTAVYYCNTDGYVGSIRSGLYIYEYWGQGTQVTVSS” the “polyreactivity (PSR sort gate)” value was “low polyreactivity”. With “QVQLVESGGGLVQAGGSLRLSCAASGITFDVYAMGWYRQAPGKERELVAAISSVGGTYYADSVKGRFTISRDNAKNTVYLQMNSLKPEDTAVYYCNTDGYVGSIRSGLYIYDYWGQGTQVTVSS” the “polyreactivity (PSR sort gate)” value was “low polyreactivity”. For “QVQLVESGGGLVQAGGSLRLSCAASGITFDWNAMGWYRQAPGKERELVAAISSGASTYYADSVKGRFTISRDNAKNTVYLQMNSLKPEDTAVYYCAKRHAINIHAVGPYYTSMDYWGQGTQVTVSS”, the “polyreactivity (PSR sort gate)” value was “low polyreactivity”. With “QVQLVESGGGLVQAGGSLRLSCAASGITFDYYGMGWYRQAPGKERALCASITSGGSTNYADSVKGRFTISRDNAKNSVYLQMNSLKPEDTAVYYCAADGYGGYYRGTYYTVYFWGQGTQVTVSS” the “polyreactivity (PSR sort gate)” value was “low polyreactivity”. For “QVQLVESGGGLVQAGGSLRLSCAASGITFDYYPMGWYRQEPGKERELVAVITWSVGSTKYADSVKGRFTISRDNAKNTVYLLMNRLKPEETAVYNCNPRPPRWVRSMDYWGHGTQVTVSS”, the “polyreactivity (PSR sort gate)” value was “high polyreactivity”. For “QVQLVESGGGLVQAGGSLRLSCAASGITFEGYAMGWYRQAPRKERELVAAITGSGSTTYYADSVKGRFTISRDNAKNTVYLQMNSLKPEDTAVYYCAADVSYKLYWGQVTQVTVSS”, the “polyreactivity (PSR sort gate)” value was “low polyreactivity”. For “QVQLVESGGGLVQAGGSLRLSCAASGITFELYAMGLYIQAPGKERELVAAISSNGGITFYADSVKGRFTISRDNAKNTVYLQMNSLKTEDTAVYYCAARGYIRGPSKLDYWGQGTQVTVSS”, the “polyreactivity (PSR sort gate)” value was “high polyreactivity”. For “QVQLVESGGGLVQAGGSLRLSCAASGITFEVYAKGWYRQAPGKERELVAVITSVGSTNYADSVKGRFTISRDNAKNTVYLQMNSLKPEDTAVYYCAAEKWTVRRFNPYTYYRYDYWGQGTQVTVSS”, the “polyreactivity (PSR sort gate)” value was “low polyreactivity”. In the case of “QVQLVESGGGLVQAGGSLRLSCAASGITFEYYDMGWYRQAPGKERELVAAISWSTDITYADSVKGRFTISRDNAKNTVYLQMNSLKPEDTAVYYCAASTYEYTSYDYWGHGTQVTVSS”, the “polyreactivity (PSR sort gate)” value is reported as “low polyreactivity”. For “QVQLVESGGGLVQAGGSLRLSCAASGITFFGYAMGWYRQAPGKERELVAAISTRGGSTYYADSVKGRFTISRDNAKNTVYLQMNSLKPEDTAFYYCNKEYYHKWAPTYDYWGQGTQVTVSS”, the “polyreactivity (PSR sort gate)” value was “low polyreactivity”. For “QVQLVESGGGLVQAGGSLRLSCAASGITFGANAMGWYRQAPGKERELVADITWSGGDTYYADSVKGRFTISRDTAKNTVYLQLHSLKPEDTAVYYCAVDTYIYTNRRYTKFDYWGQGTQVTVSS”, the “polyreactivity (PSR sort gate)” value was “low polyreactivity”. For “QVQLVESGGGLVQAGGSLRLSCAASGITFGDYAMGWYRQAPGKEMEMVAGINWSGDGTYYADSVKGRFTISRDNAKNTVYLQMNSLKPEDTAVYYCNARGIPLYSYRDYRFVVLNFDYWGQGTQVTVSS”, the “polyreactivity (PSR sort gate)” value was “low polyreactivity”. For “QVQLVESGGGLVQAGGSLRLSCAASGITFGDYAMGWYRQAPGKERELVAAISKRGGSTYYADSVKGRFTISRDNAKNTVYLQMNSLKPEDTAVYYCAADYYINAYYYWGQGTQVTVSS”, the “polyreactivity (PSR sort gate)” value was “high polyreactivity”. For “QVQLVESGGGLVQAGGSLRLSCAASGITFGDYAMGWYRQAPGKERELVAAISKRGGSTYYAESVKGRFTISRDNAKNTVYLQMNSRNPEDTAVYYCAADYYSKAYYYWGQGTQVTVSS”, the “polyreactivity (PSR sort gate)” value was “high polyreactivity”. In the case of “QVQLVESGGGLVQAGGSLRLSCAASGITFGGNAMGWYRQAPGKERELVAAISGRGGRTYYADSVKGRFTISRDTAKNTVYLQMNSLKPEDTAVYYCAGGGRVRYDYWGQGTQVTVSS”, the “polyreactivity (PSR sort gate)” value is reported as “low polyreactivity”. In the case of “QVQLVESGGGLVQAGGSLRLSCAASGITFGGYALGWYRQAPGKEREFVAGISSSGRSTYYADSVKGRFTISRDNAKNTVYLQMYSLKPEDTAVYYCAVYRVRKVYVLRGPFYYWGQGTQVTVSS”, the “polyreactivity (PSR sort gate)” value is reported as “high polyreactivity”. With “QVQLVESGGGLVQAGGSLRLSCAASGITFGHYTMGWYRQAPGKERELVAAISWSGGSTYYADSVKGRFTISRDNAKNTVYLQMNSLKPEDTAVYYCNRVKPVIASYDSDYWGQGTQVTVSS” the “polyreactivity (PSR sort gate)” value was “low polyreactivity”. With “QVQLVESGGGLVQAGGSLRLSCAASGITFGINAMGWYRQAPGKERELVAAITSGGSTYYADSVKGRFTISRDNAKNTVYLQMNSLKPEDTAVYDCAADYQYFVYCEYDYWGQGTQVTVSS” the “polyreactivity (PSR sort gate)” value was “low polyreactivity”. In the case of “QVQLVESGGGLVQAGGSLRLSCAASGITFGIYVMGWYRQAPGKERELVATISRSDDNTYYADSVKGRFTISRDNAKNTVYLQMNSLKPEDTAVYYCAADGVISAWYSSRDDYWGQGTQVTVSS”, the “polyreactivity (PSR sort gate)” value is reported as “low polyreactivity”. With “QVQLVESGGGLVQAGGSLRLSCAASGITFGKNALGWYRQAPGKERELVATIRRSGGSTYADSVKGRFTISRDNAKNTVYLQMNSLKPEDTAVYYCNARSWNTYNYWGQGTQVTVSS” the “polyreactivity (PSR sort gate)” value was “high polyreactivity”. In the case of “QVQLVESGGGLVQAGGSLRLSCAASGITFGLYAMGWYRQAPGKEREFVAAISRRGGSTSYADSVKGRFTISRDNAKNTVYLQMNSLKPEDTAVYYCDTSYRRTVGGYTYYWGQGTQVTVSS”, the “polyreactivity (PSR sort gate)” value is reported as “high polyreactivity”. For “QVQLVESGGGLVQAGGSLRLSCAASGITFGRNAMGWYRQAPGKERELVAAISRGGSTNYADSVKGRFTISRDNAKNTVYLQMNSLKPEDTAVYYCNARSWPHGSWIPIHRRYGYWGQGTQVTVSS”, the “polyreactivity (PSR sort gate)” value was “high polyreactivity”. In the case of “QVQLVESGGGLVQAGGSLRLSCAASGITFGRNTMGWYRPAPGKERELVAAIDSGGNTYADSVKGRFTISRDNAKNTVYLQMNSLKPEDTAVYYCAVDGGEFSSYGYWGQGTQVTVSS”, the “polyreactivity (PSR sort gate)” value is reported as “low polyreactivity”. In the case of “QVQLVESGGGLVQAGGSLRLSCAASGITFGRYAMGWYSQAPGKARELVASITVNGGRTYYADSVKGRFTISRDNAKNTVNLQMNSLKPEDTAVSYCAAERRNSYVLLFKYNYWGQGTQVTVSS”, the “polyreactivity (PSR sort gate)” value is reported as “low polyreactivity”. With “QVQLVESGGGLVQAGGSLRLSCAASGITFGSNAMGWYRQAPGKERELVAAISRSGGRTYYADSVKGRFTISRDNAKNTVSLQMNSLKPEDTAVYDCATDSYTTGEYWGQGTQVTVSS” the “polyreactivity (PSR sort gate)” value was “high polyreactivity”. For “QVQLVESGGGLVQAGGSLRLSCAASGITFGSYAMGWYRQAPGKEREFVAAISLSGGNTYYADSVKGRFTISRDNAKNTVYLQMNSRKPEDTAVYYCAADYDYSGYGYWGQGTQVTVSS”, the “polyreactivity (PSR sort gate)” value was “high polyreactivity”. In the case of “QVQLVESGGGLVQAGGSLRLSCAASGITFGTNAMGWYRQAPGKERELVAAITSGVSTYYADSVKGRFTISRDNAKNTVYLQMNSLIPEDTAVYYCAKDVAVYADLYQGDPYGYWGQGTLVTVSS”, the “polyreactivity (PSR sort gate)” value is reported as “low polyreactivity”. With “QVQLVESGGGLVQAGGSLRLSCAASGITFGVNTMGWYRQAPGKERELVAAITWRGGSTYYADSVKGRFTISRDNAKNTVYLQMNSLKPEDTAVYYCAAPYDGPVLTVGYDYWGQGTQVTVSS” the “polyreactivity (PSR sort gate)” value was “low polyreactivity”. For “QVQLVESGGGLVQAGGSLRLSCAASGITFGVNTMGWYRQAPGKERELVAAITWRGGSTYYADSVKGRFTISRDNAKNTVYLQMNSLKPEDTAVYYCAAVDFTREISGVTYGFDYCGQGTQVTVSS”, the “polyreactivity (PSR sort gate)” value was “low polyreactivity”. For “QVQLVESGGGLVQAGGSLRLSCAASGITFGYNTMGWYRQAPGKERELVAAISGSGGRTYYADSVKGRFTISRDNAKNTVFLQMNSLKPEDTAVYYCAARWPIWSSLYDYWGQGTQVTVSS”, the “polyreactivity (PSR sort gate)” value was “high polyreactivity”. For “QVQLVESGGGLVQAGGSLRLSCAASGITFGYYAMGRYRQAPGKERELVAAISNSGRTYYADSVKGRFTISRDNAKNTVYLQMNSLKPEDTAVYYCAVRISGNWYDYWGQGTQVTVSS”, the “polyreactivity (PSR sort gate)” value was “low polyreactivity”. With “QVQLVESGGGLVQAGGSLRLSCAASGITFGYYAMGWSRQAPGKERELVAAISSGGRTNYADSVKGRFTISRDNAKNTVYLQMISLKPEDTAVYYCAASTHHPGYPPDVLYDEYEYWGQGTQVTVSS” the “polyreactivity (PSR sort gate)” value was “low polyreactivity”. For “QVQLVESGGGLVQAGGSLRLSCAASGITFGYYAMGWYRQAPGKERELVAAISNSGRTYYADSVKGRFTISRDNAKNTVYLQMNILKPEDTAVYYCAAEDAYYDFYYWGQGTKVTVSS”, the “polyreactivity (PSR sort gate)” value was “low polyreactivity”. With “QVQLVESGGGLVQAGGSLRLSCAASGITFHRNAMGWYRQAPGKERELVAAITRGGSTYYADSVKGRFTISRDNAKNTVYLQMNSLKPEDTAVYYCNAYYWFGPGRDYWGQGTQVTVSS” the “polyreactivity (PSR sort gate)” value was “high polyreactivity”. In the case of “QVQLVESGGGLVQAGGSLRLSCAASGITFHSYAMGWYRQAPGKERELVAGISSGGSTNYADSVKGRFTISRDNAKNTVYLQMNSLKPEDTAVYYCNADTPFYEYDYWGQGTQVTVSS”, the “polyreactivity (PSR sort gate)” value is reported as “low polyreactivity”. In the case of “QVQLVESGGGLVQAGGSLRLSCAASGITFIGYVMGWYRQAPGKERELVAAISRSGASTYYADSVKGRFTISRDNAKNTVYLQMNSLKPEDTAVYYSATVRYHPAYYYWGQGTQVTVSS”, the “polyreactivity (PSR sort gate)” value is reported as “high polyreactivity”. In the case of “QVQLVESGGGLVQAGGSLRLSCAASGITFIRNGMGWYRQAPGKERELVAAISDTGARTYYADSVKGRFTISRDNAKNTVYLQMNSLKPEDTAVYYCAAEVRTRYLYSFRWYDYWGQGTQVTVSS”, the “polyreactivity (PSR sort gate)” value is reported as “low polyreactivity”. With “QVQLVESGGGLVQAGGSLRLSCAASGITFKPNTMGWYRQAPGKERELVAAIDWSGSSTYYADSVKGRFTISRDNAKNTVYLHMNSLKPEDTAVYYCAADEYEYFWSYDYWGQGTQVTVSS” the “polyreactivity (PSR sort gate)” value was “low polyreactivity”. For “QVQLVESGGGLVQAGGSLRLSCAASGITFKPNTMGWYRQAPGKERELVAAIDWSGSSTYYADSVKGRFTISRDNAKNTVYLQMISLKPEDTAVYYCAADDYEYFWSYDYWGQGTQVTVSS”, the “polyreactivity (PSR sort gate)” value was “low polyreactivity”.
